Numbering of substitutions follows the chain as printed. Names may count otherwise.
B1: LuxSit: de novo designed DTZ luciferase, 117 residues, SEQ ID NO:1 (protein)
chain: MSEEQIRQFLRRFYEALDSGDADTAASLFHPGVTIHLWDGVTFTSREEFREWFERLFSTRKDAQREIKSLEVRGDTVEVHVQLHATHNGQKHTVDATHHWHFRGNRVTEMRVHINPTG
modifications: VARIANT 1 optionally absent; VARIANT 118 optionally absent
B2: M110V: LuxSit mutant M110V (protein)
chain: B1 chain with M110V
modifications: VARIANT 1 optionally absent; VARIANT 118 optionally absent
B3: LuxSit-f: LuxSit variant A96M/M110V, SEQ ID NO:3, strong initial flash emission (protein)
chain: B1 chain with A96M, M110V
modifications: VARIANT 1 optionally absent; VARIANT 118 optionally absent
B4: A96M: LuxSit mutant A96M (protein)
chain: B1 chain with A96M
modifications: VARIANT 1 optionally absent; VARIANT 118 optionally absent
B5: native Renilla reniformis luciferase (RLuc) (Renilla reniformis) (protein)
chain: MTSKVYDPEQRKRMITGPQWWARCKQMNVLDSFINYYDSEKHAENAVIFLHGNAASSYLWRHVVPHIEPVARCIIPDLIGMGKSGKSGNGSYRLLDHYKYLTAWFELLNLPKKIIFVGHDWGACLAFHYSYEHQDKIKAIVHAESVVDVIESWDEWPDIEEDIALIKSEEGEKMVLENNFFVETMLPSKIMRKLEPEEFAAYLEPFKEKGEVRRPTLSWPREIPLVKGGKPDVVQIVRNYNAYLRASDDLPKMFIESDPGFFSNAIVEGAKKFPNTEFVKVKGLHFSQEDAPDEMGKYIKSFVERVLKNEQ
notes: host and tag of RLuc not clearly stated

Assays:
[1] = for Relative emission intensity: integrated luminescence intensity over the first 20 min, normalized to LuxSit, 25 μM DTZ in Tris pH 8.0 buffer; for increase of activity over LuxSit: DTZ
Experimental: Each colony was expressed individually in each well of 96-well plates (1 mL culture) and purified accordingly (see Methods). (a) Individual luminescence activity of each selected mutant was plotted and compared to the parent LuxSit. Luminescence activities were measured in the presence of 25 μM DTZ. Luminescence activity (RLU) was shown as the integrated signal over the first 15 min. Statistical analysis of the amino acid frequency versus the luciferase activity at residue (b) 60, (c) 96, and (d) 110.
The cells were plated on 150 mm×15 mm LB agar plates supplemented with carbenicillin and L-arabinose, incubated at 37° C. overnight, and left at 4° C. for another 24 h. As described in the screening of luciferase libraries, colony-based screening by spraying DTZ solution was used to identify active colonies. […] The plates were shaken at 37 C overnight (˜16-18 h) on 96-well plate shakers at 1,100 rpm. Cells were pelleted by centrifugation at 4,000 g for 15 min in a tabletop centrifuge. Media was discarded and the cell pellets were resuspended in 0.2 mL BugBuster HT Protein Extraction buffer. The plates were transferred back to 96-well plate shakers and incubated at 1,100 rpm for an additional 30 min. Cellular debris was pelleted again by centrifugation at 4,000 g for 15 min, soluble lysates were transferred to a new semi-deep 96-well plate, and incubated with 10 μL of magnetic Ni-NTA beads for 30 min to allow binding. The magnetic extractor was used to first transfer the beads from the binding plates to wash plates with 200 μL IMAC wash buffer in each well, and then transfer the beads to elusion plates containing 30 μL IMAC elution buffer in each well. The concentrations of all proteins in each well were determined by the Bradford assay directly. The elution solution in each well was used to make a 25 μL protein solution at indicated concentration and mixed with 25 μL of 50 μM DTZ PBS solution. The luminescence signals were acquired over a course of 15 min while the actual point mutation was identified by sequencing.

[2] = Circular dichroism spectra and thermal denaturation; format: physicochemical; settings: 220 nm, 25° C. to 95° C.
From the text: (§1) Synthetic genes and oligonucleotides were purchased from Integrated DNA Technologies or GenScript. The synthetic gene was inserted between NdeI and XhoI sites of a pET29b+ vector, containing an N-terminal hexahistidine tag followed by a TEV protease cleavage site and a C-terminal stop codon. Restriction endonucleases, Q5 PCR polymerase, and T4 ligase were purchased from NEB. Plasmid DNA, PCR products, or digested fragments were purified by Qiagen DNA purification kits. DNA sequences were analyzed by Genewiz. Coelenterazine (CTZ) was purchased from Gold Biotechnology. Diphenylterazine (DTZ), pyridyl diphenylterazine (8pyDTZ), and Furimazine (FRZ) were purchased from MedChemExpress. […] DNA and protein concentrations were determined by a NanoDrop™ small-volume 8 channel UV/vis spectrometer. […] All luminescence measurements were acquired by a Biotek Synergy Neo2T™ Multi-Mode Plate Reader. To convert relative arbitrary unit (RLU) to the number of photons, Neo2 plate reader was calibrated by determining the chemiluminescence of luminol with known quantum yield in the presence of horseradish peroxidase and hydrogen peroxide in K2CO3 aqueous solution as previously described^45. SDS PAGE and luminescence images were captured by a Bio-Rad ChemiDocT™ XRS+. Images were analyzed using the Fiji image analysis software.
Purified protein samples were prepared at 15 μM in pH 7.4 10 mM phosphate buffer. Spectra from 190 nm to 260 nm were recorded at 25° C., 50° C., 75° C., 95° C., and after cooling back to 25° C. Thermal denaturation was monitored at 220 nm from 25° C. to 95° C. […]

[3] = Luciferase activities of re-designed sequences based on LuxSit-i (Table 1); format: biochemical; settings: LuxSit-f and re-designed sequences based on LuxSit-i (Table 1)
From the text: In another embodiment, the proteins comprise an amino acid sequence at least 30%, 35%, 40%, 45%, 50%, 55%, 60%, 65%, 70%, 75%, 80%, 85%, 90%, 91%, 92%, 93%, 94%, 95%, 96%, 97%, 98%, 99%, or 100% identical to the amino acid selected from the group consisting of SEQ ID NO:1-181, as shown in Table 1. SEQ ID NO:5-181 in Table 1 are re-designed amino acid sequences based on LuxSit-i (SEQ ID NO:2), with their luciferase activities shown.

[4] = Michaelis-Menten kinetics measurements of purified luciferases; format: biochemical; settings: DTZ; mean (95% CI), n = 3
Experimental: For Michaelis-Menten kinetics measurements, 25 μL of serial diluted DTZ substrate in Tris pH 8.0 buffer was added into the wells of a white 96-well half-area microplate containing 25 μL of purified luciferases (final enzyme concentration: 100 nM; substrate concentration: 0.78 to 50 μM). Measurements were taken every 1 min (0.1 s integration and 10 s shaking between each interval) for a total of 20 min. Initial velocities were estimated as the average of the light intensities from the first three data points to fit the Michaelis-Menten equation. All relative arbitrary unit (RLU) per second values were converted to photon/s by the luminol-H2O2—HRP calibration method^45. Following the equation: Imax=LQY×kcat×[E], Imax is the maximal photon flux (photon s^−1), [E] is the total enzyme concentration, and V ax is the maximum photon flux per molecule (photon s^−1 molecule^−1) from the fitting of the Michaelis-Menten equation. To determine the luminescent quantum yields, 25 μL of 5 μM individual substrate in PBS was injected into 25 μL PBS containing 100 nM corresponding luciferase. DTZ was used for all LuxSit variants while CTZ was used as the substrate of native RLuc. The luminescence signals were monitored until the reactions were completed (0.1 s integration and measurements were taken every 5 s for a total of 40 min). […] To record emission spectra, 25 μL of 50 μM DTZ in PBS were injected into 25 μL of 200 nM pure luciferases and the emission spectra were collected with 0.1 s integration and 2 nm increments from 300 to 700 num. In vitro luminescence activity measurements of LuxSit-i expressing HEK293T or HeLa cells were done similarly as 15,000 intact cells or lysates were used in the assay instead of purified luciferases. To evaluate the substrate specificity, 25 μL of 50 μM substrate analogs in PBS were added to 25 μL of 200 nM indicated luciferases, and the signals were recorded over 20 min. Data were shown as the total luminescence signal over the first 10 min. We normalized the data by setting the highest emission substrate at 100%.

[5] = Luminescent quantum yield of LuxSit variants; format: biochemical; settings: consuming 125 pmol of DTZ in PBS with 50 nM recombinant luciferase; estimated relative to reported quantum yield of RLuc; mean ± s.d., n = 3
Experimental: FIG. 10. Additional characterization of LuxSit variants. (a) Normalized emission kinetics of 15,000 intact HeLa cells expressing LuxSit-i, 100 nM purified LuxSit-i, or 100 nM purified LuxSit-f in the presence of 50 μM DTZ. The more extended emission kinetics in HeLa cells is likely due to the diffusion rate of DTZ across cell membranes. […] (c) Luminescent quantum yield was estimated from the integrated luminescence signal until completely converting 125 pmol substrates to photons in the presence of 50 nM corresponding luciferase (see Methods). All data points were plotted as the average of triplicate measurements.
For Michaelis-Menten kinetics measurements, 25 μL of serial diluted DTZ substrate in Tris pH 8.0 buffer was added into the wells of a white 96-well half-area microplate containing 25 μL of purified luciferases (final enzyme concentration: 100 nM; substrate concentration: 0.78 to 50 μM). […] The luminescence signals were monitored until the reactions were completed (0.1 s integration and measurements were taken every 5 s for a total of 40 min). […] In vitro luminescence activity measurements of LuxSit-i expressing HEK293T or HeLa cells were done similarly as 15,000 intact cells or lysates were used in the assay instead of purified luciferases. […] Data were shown as the total luminescence signal over the first 10 min. […]

[6] = substrate: Oc1ccc(Cc2nc3c(Cc4ccccc4)nc(-c4ccc(O)cc4)cn3c2O)cc1; experiment: Michaelis-Menten kinetics of native Renilla luciferase (RLuc) with CTZ; format: biochemical, Renilla reniformis; settings: other: substrate CTZ; Table 3; pH 8.0
From the text: as §1
For Michaelis-Menten kinetics measurements, 25 μL of serial diluted DTZ substrate in Tris pH 8.0 buffer was added into the wells of a white 96-well half-area microplate containing 25 μL of purified luciferases (final enzyme concentration: 100 nM; substrate concentration: 0.78 to 50 μM). […] The luminescence signals were monitored until the reactions were completed (0.1 s integration and measurements were taken every 5 s for a total of 40 min). […] In vitro luminescence activity measurements of LuxSit-i expressing HEK293T or HeLa cells were done similarly as 15,000 intact cells or lysates were used in the assay instead of purified luciferases. […]

| Molecule | Relative emission intensity [1] | thermal stability (CD melting) [2] | Activity [3] | increase of activity over LuxSit [1] [fold] | further results |
| --- | --- | --- | --- | --- | --- |
| B1 | 1 | not fully unfolded at 95 °C | 75.3 | – | – |
| B2 | 19.3 | – | – | 19 | Km [4]: 30.3 µM; Vmax [4]: 7.1(6.2-8.4) ×10^−2 photon s^−1 molecule^−1 |
| B3 | 60.9 | thermostable | 534.5 | – | LQY (luminescent quantum yield) [5]: 10.9 ± 1.5% |
| B4 | 16.4 | – | – | 16 | – |
| B5 | – | – | – | – | Km [6]: 1.5 µM; kcat [6]: 4.9 s⁻¹; kcat/Km [6]: 3.3e+06 M⁻¹ s⁻¹ |
